Data on five substances can be found in article PMC3762189.

Usually Kd stands for the concentration at which binding is half-saturated. Usually koff stands for the rate constant with which the complex falls apart. As a reminder, the kon is the rate constant with which the complex forms.

The target of test [1] is branch junction (bovine Arp2/3 complex with mother and daughter actin filaments) (bovine | rabbit) (UniProt P61157). Nature of the test: single-molecule TIRF microscopy; during active branching: 1 µM 33% Oregon-Green actin, 10 nM Arp2/3 complex, 350 nM VCA and 10 nM Alexa568-NtA(1-48).
Test [2] has as its target G-actin (rabbit muscle actin monomers) (rabbit) (UniProt P68135). Description: fluorescence polarisation; competition: anisotropy of 50 nM Rhodamine-VCA with 150 nM G-actin and increasing VCA or VCA mutants; 10 mM Hepes pH 7.0, 50 mM KCl, 1 mM MgCl2, 1 mM EGTA, 1 mM DTT, 0.2 mM ATP, 350 nM Latrunculin B; KD is the mean of at least three fits. For orientation: Polarisation of emitted light reports the rotation of a fluorescent probe.

Test [3] deals with branch junction (bovine Arp2/3 complex with mother and daughter actin filaments) (bovine | rabbit) (UniProt P61157).
Test [4] addresses actin filaments (33% Oregon-Green actin), filament sides (rabbit) (UniProt P68135). Description: single-molecule TIRF microscopy; during active branching: 1 µM 33% Oregon-Green actin, 5 nM Arp2/3 complex, 50 nM VCA and 2 nM Alexa568-cortactin; average lifetimes for each binding class.
The target of test [5] is branch junction (bovine Arp2/3 complex with mother and daughter actin filaments) (bovine | rabbit) (UniProt P61157). The description is as above.
Test [6] concerns the target actin filaments (33% Oregon-Green actin), filament sides (rabbit) (UniProt P68135). Nature of the test: single-molecule TIRF microscopy; 2 nM Alexa568-cortactin (1–336) on polymerizing filaments of 1 µM 33% Oregon-Green actin, no Arp2/3 complex; filaments tethered by biotinylated myosin; lifetimes fit with a single exponential.
Test [7] shares this target. Description: single-molecule TIRF microscopy; preformed branched networks (1 µM 33% Oregon-Green actin, 5 nM Arp2/3 complex, 30 nM VCA, ~6 min), then 1.5 nM Alexa568-cortactin and 0.1 µM actin monomers; koff from lifetimes, KD from the average fraction bound, kon calculated from KD and koff.
In test [8] the target is branch junction (bovine Arp2/3 complex with mother and daughter actin filaments) (bovine | rabbit) (UniProt P61157). The description is as above.

Sequence of cortactin NtA (residues 1–84) (Q60598 1-84): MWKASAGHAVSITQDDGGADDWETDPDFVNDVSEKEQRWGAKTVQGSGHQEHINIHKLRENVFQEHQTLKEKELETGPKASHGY

Regarding “Alexa568-NtA(1-48) (from UniProt Q60598 1-48) (domain or fragment)”, the time bound after daughter filament nucleation (one event shown) in test [1] was determined as 4.5 s.
In test [2], “N-WASP-VCA(E455R) (from UniProt Q95107 1-505) (domain or fragment)” had a Kd of 630 nM.
Still for that read-out and setting: then “N-WASP-VCA(R442A) (from UniProt Q95107 1-505) (domain or fragment)”, with 11200 nM.
For “cortactin NtA (residues 1–84) (from UniProt Q60598 1-84) (domain or fragment)”, the concentration of NtA (1–84) required for half-maximal synergy with GST-VCA (maximum rate of pyrene-actin polymerization; 2 µM 15% pyrene-actin, 20 nM Arp2/3 complex, 250 nM GST-VCA) in test [3] came to 11 µM.
The substance “Alexa568-cortactin (residues 1–336) (from UniProt Q60598 1-336) (domain or fragment)” displayed a lifetime on filament sides during active branching in test [4] of 8 s. In test [5], this substance registered an average lifetime at the junction after nucleation of 62 s, an average lifetime before nucleation (nascent branch junction) of 6.5 s and an average lifetime on existing branch junctions during active branching of 29.5 s. The koff in test [6] amounted to 0.05 s⁻¹. Moreover, in test [7], the Kd was 5210 nM, the koff was 0.063 s⁻¹ and the kon is 12100 M⁻¹ s⁻¹. Besides, in test [8], the Kd is 17 nM, the average lifetime on branch junctions (preformed filament reactions) is 29.1 s, the koff is 0.034 s⁻¹ and the kon is 2e+06 M⁻¹ s⁻¹.
